Assay results from publication doi:10.1101/2020.01.07.897124 (bioRxiv, 2020).
Like-named read-outs stand apart in the source and are kept apart here.

B1: human SOAT1 full-length (1-550), purified, tags removed (enzyme, UniProt P35610 1-550, looked up)
chain: MVGEEKMSLRNRLSKSRENPEEDEDQRNPAKESLETPSNGRIDIKQLIAKKIKLTAEAEELKPFFMKEVGSHFDDFVTNLIEKSASLDNGGCALTTFSVLEGEKNNHRAKDLRAPPEQGKIFIARRSLLDELLEVDHIRTIYHMFIALLILFILSTLVVDYIDEGRLVLEFSLLSYAFGKFPTVVWTWWIMFLSTFSVPYFLFQHWATGYSKSSHPLIRSLFHGFLFMIFQIGVLGFGPTYVVLAYTLPPASRFIIIFEQIRFVMKAHSFVRENVPRVLNSAKEKSSTVPIPTVNQYLYFLFAPTLIYRDSYPRNPTVRWGYVAMKFAQVFGCFFYVYYIFERLCAPLFRNIKQEPFSARVLVLCVFNSILPGVLILFLTFFAFLHCWLNAFAEMLRFGDRMFYKDWWNSTSYSNYYRTWNVVVHDWLYYYAYKDFLWFFSKRFKSAAMLAVFAVSAVVHEYALAVCLSFFYPVLFVLFMFFGMAFNFIVNDSRKKPIWNVLMWTSLFLGNGVLLCFYSQEWYARQHCPLKNPTFLDYVRPRSWTCRYVF
B2: human SOAT1-dimer (66-550), purified, tags removed (domain or fragment, UniProt P35610 66-550, looked up)
chain: MKEVGSHFDDFVTNLIEKSASLDNGGCALTTFSVLEGEKNNHRAKDLRAPPEQGKIFIARRSLLDELLEVDHIRTIYHMFIALLILFILSTLVVDYIDEGRLVLEFSLLSYAFGKFPTVVWTWWIMFLSTFSVPYFLFQHWATGYSKSSHPLIRSLFHGFLFMIFQIGVLGFGPTYVVLAYTLPPASRFIIIFEQIRFVMKAHSFVRENVPRVLNSAKEKSSTVPIPTVNQYLYFLFAPTLIYRDSYPRNPTVRWGYVAMKFAQVFGCFFYVYYIFERLCAPLFRNIKQEPFSARVLVLCVFNSILPGVLILFLTFFAFLHCWLNAFAEMLRFGDRMFYKDWWNSTSYSNYYRTWNVVVHDWLYYYAYKDFLWFFSKRFKSAAMLAVFAVSAVVHEYALAVCLSFFYPVLFVLFMFFGMAFNFIVNDSRKKPIWNVLMWTSLFLGNGVLLCFYSQEWYARQHCPLKNPTFLDYVRPRSWTCRYVF

What was measured:
cryo-EM structure [1] = biological target: the molecule itself; assay: cryo-EM structure
cryo-EM structure [2] = biological target: the molecule itself; assay: cryo-EM structure; remark: listed apart in the source

Row | Protein | stoichiometry N (cryo-EM structure [1]) | stoichiometry N (cryo-EM structure [2])
1 | B1 | 4 | –
2 | B2 | – | 2
